From the supplement of paper PMC10567573

B1: PPEF2 (parent)
chain: DHSGFISLDEFRQTWKLFSSHMNI

Variants of: B1
Test: protein stability index of a GFP-peptide fusion (GPS, HEK-293T) (PSI 1-6); higher = more stable
Details: c terminus: a fixed tail appended
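Note: lentivirally expressed fusions sorted by FACS into six bins by GFP to DsRed ratio, PSI derived from sequencing read proportions per bin multiplied by bin number.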

| Variant | protein stability index |
| --- | --- |
| DHSGFISHDEFRQTWKLFSSHMNI | 2.44 |
| DHSGFISQDEFRQTWKLFSSHMNI | 2.01 |
| DHSGFISPDEFRQTWKLFSSHMNI | 1.9 |
| DHSGFISCDEFRQTWKLFSSHMNI | 1.71 |
| DHSGFISIDEFRQTWKLFSSHMNI | 2.24 |
| DHSGFISVDEFRQTWKLFSSHMNI | 2.74 |
| DHSGFISWDEFRQTWKLFSSHMNI | 2.06 |
| DHSGFISEDEFRQTWKLFSSHMNI | 1.85 |
| DHSGFISDDEFRQTWKLFSSHMNI | 2.13 |
| DHSGFISFDEFRQTWKLFSSHMNI | 2.59 |
| DHSGFISLDEERQTWKLFSSHMNI | 2.37 |
| DHSGFISLDEARQTWKLFSSHMNI | 1.32 |
| DHSGFISLDEIRQTWKLFSSHMNI | 1.79 |
| DHSGFISLDEWRQTWKLFSSHMNI | 1.64 |
| DHSGFISLDETRQTWKLFSSHMNI | 1.74 |
| DHSGFISLDEDRQTWKLFSSHMNI | 1.61 |
| DHSGFISLDERRQTWKLFSSHMNI | 2.01 |
| DHSGFISLDEYRQTWKLFSSHMNI | 2.19 |
| DHSGFISLDEPRQTWKLFSSHMNI | 1.85 |
| DHSGFISLDEKRQTWKLFSSHMNI | 1.64 |
| DHSGFISLDEFRQTIKLFSSHMNI | 1.77 |
| DHSGFISLDEFRQTFKLFSSHMNI | 2.07 |
| DHSGFISLDEFRQTTKLFSSHMNI | 2.58 |
| DHSGFISLDEFRQTEKLFSSHMNI | 1.96 |

| Variant | protein stability index |
| --- | --- |
| DHSGFISLDEFRQTHKLFSSHMNI | 1.76 |
| DHSGFISLDEFRQTKKLFSSHMNI | 2.36 |
| DHSGFISLDEFRQTWKLFSSHINI | 2.02 |
| DHSGFISLDEFRQTWKLFSSHTNI | 1.6 |
| DHSGFISLDEFRQTWKLFSSHGNI | 2.17 |
| DHSGFISLDEFRQTWKLFSSHVNI | 1.51 |
| DHSGFISLDEFRQTWKLFSSHCNI | 2.98 |
| DHSGFISLDEFRQTWKLFSSHYNI | 2.21 |
| DHSGFISLDEFRQTWKLFSSHRNI | 1.91 |
| DHSGFISLDEFRQTWKLFSSHFNI | 2.32 |
| DHSGFISLDEFRQTWKLFSSHPNI | 2.6 |
| DHSGFISLDEFRQTWKLFSSHENI | 2.19 |
| DHSGFISLDEFRQTWALFSSHMNI | 1.88 |
| DHSGFISLDEFRQTWILFSSHMNI | 3.37 |
| DHSGFISLDEFRQTWWLFSSHMNI | 3.62 |
| DHSGFISLDEFRQTWSLFSSHMNI | 1.81 |
| DHSGFISLDEFRQTWTLFSSHMNI | 3.38 |
| DHSGFISLDEFRQTWCLFSSHMNI | 2.15 |
| DHSGFISLDEFRQTWLLFSSHMNI | 3.93 |
| DHSGFISLDEFRQTWMLFSSHMNI | 1.01 |
| DHSGFISLDEFRQTWVLFSSHMNI | 2.6 |
| DHSGFISLDEFRQTWKLFSAHMNI | 2.14 |
| DHSGFISLDEFRQTWKLFSWHMNI | 3.78 |
| DHSGFISLDEFRQTWKLFSGHMNI | 2.92 |

| Variant | protein stability index |
| --- | --- |
| DHSGFISLDEFRQTWKLFSQHMNI | 1.83 |
| DHSGFISLDEFRQTWKLFSIHMNI | 2.75 |
| DHSGFISLDEFRQTWKLFSMHMNI | 2.81 |
| DHSGFISLDEFRQTWKLFSKHMNI | 1.81 |
| DHSGFISLDEFRQTWKLFSRHMNI | 2.16 |
| DHSGFISLDEFRQTWKLFSDHMNI | 2.15 |
| DHSGFISLDEFRQTWKLFSLHMNI | 2.03 |
| DHSGFISLDEFRQTWKLFSYHMNI | 2.47 |
| DHYGFISLDEFRQTWKLFSSHMNI | 2.27 |
| DHEGFISLDEFRQTWKLFSSHMNI | 2.17 |
| DHCGFISLDEFRQTWKLFSSHMNI | 1.81 |
| DHMGFISLDEFRQTWKLFSSHMNI | 1.69 |
| DHNGFISLDEFRQTWKLFSSHMNI | 1.99 |
| DHVGFISLDEFRQTWKLFSSHMNI | 1.46 |
| DHLGFISLDEFRQTWKLFSSHMNI | 2.07 |
| DHDGFISLDEFRQTWKLFSSHMNI | 2 |
| DHAGFISLDEFRQTWKLFSSHMNI | 1.92 |
| DHKGFISLDEFRQTWKLFSSHMNI | 2.47 |
| DHSGFISLDEFRQTWKEFSSHMNI | 2.11 |
| DHSGFISLDEFRQTWKAFSSHMNI | 2.07 |
| DHSGFISLDEFRQTWKQFSSHMNI | 1.58 |
| DHSGFISLDEFRQTWKFFSSHMNI | 3.02 |
| DHSGFISLDEFRQTWKRFSSHMNI | 1.62 |
| DHSGFISLDEFRQTWKDFSSHMNI | 2.27 |

| Variant | protein stability index |
| --- | --- |
| DHSGFISLDEFRQTWKIFSSHMNI | 3.24 |
| YHSGFISLDEFRQTWKLFSSHMNI | 2.58 |
| QHSGFISLDEFRQTWKLFSSHMNI | 2.4 |
| RHSGFISLDEFRQTWKLFSSHMNI | 1.95 |
| AHSGFISLDEFRQTWKLFSSHMNI | 1.51 |
| VHSGFISLDEFRQTWKLFSSHMNI | 2.56 |
| IHSGFISLDEFRQTWKLFSSHMNI | 3.63 |
| KHSGFISLDEFRQTWKLFSSHMNI | 2.64 |
| DHSGFKSLDEFRQTWKLFSSHMNI | 1.94 |
| DHSGFASLDEFRQTWKLFSSHMNI | 1.39 |
| DHSGFNSLDEFRQTWKLFSSHMNI | 1.6 |
| DHSGFFSLDEFRQTWKLFSSHMNI | 1.03 |
| DHSGFYSLDEFRQTWKLFSSHMNI | 1.89 |
| DHSGFWSLDEFRQTWKLFSSHMNI | 1.82 |
| DHSGFISLDEFRQTWKLFQSHMNI | 2.02 |
| DHSGFISLDEFRQTWKLFKSHMNI | 1.85 |
| DHSGFISLDEFRQTWKLFMSHMNI | 1.78 |
| DHSGFISLDEFRQTWKLFNSHMNI | 1.07 |
| DHSGFISLDEFRQTWKLFLSHMNI | 1.46 |
| DHSGFISLDEFRQTWKLFHSHMNI | 1.88 |
| DHSGFISLDEFQQTWKLFSSHMNI | 1.38 |
| DHSGFISLDEFGQTWKLFSSHMNI | 2.79 |
| DHSGFISLDEFWQTWKLFSSHMNI | 2.39 |
| DHSGFISLDEFVQTWKLFSSHMNI | 2.88 |

| Variant | protein stability index |
| --- | --- |
| DHSGFISLDEFEQTWKLFSSHMNI | 1.62 |
| DHSGFISLDEFKQTWKLFSSHMNI | 1.89 |
| DHSYFISLDEFRQTWKLFSSHMNI | 2.27 |
| DHSAFISLDEFRQTWKLFSSHMNI | 2.89 |
| DHSLFISLDEFRQTWKLFSSHMNI | 2.95 |
| DHSFFISLDEFRQTWKLFSSHMNI | 2.5 |
| DHSHFISLDEFRQTWKLFSSHMNI | 2.28 |
| DHSEFISLDEFRQTWKLFSSHMNI | 2.16 |
| DHSSFISLDEFRQTWKLFSSHMNI | 1.51 |
| DHSIFISLDEFRQTWKLFSSHMNI | 2.78 |
| DHSGFISLDEFRQTWKLFSSLMNI | 1.74 |
| DHSGFISLDEFRQTWKLFSSNMNI | 2.01 |
| DHSGFISLDEFRQTWKLFSSTMNI | 2.09 |
| DHSGFISLDEFRQTWKLFSSHMCI | 2.72 |
| DHSGFISLDEFRQTWKLFSSHMII | 2.18 |
| DHSGFISLDEFRQTWKLFSSHMDI | 1.69 |
| DHSGFISLDEFRQTWKLFSSHMKI | 1.96 |
| DHSGFISLDEFRQTWKLFSSHMYI | 2.57 |
| DHSGFISLDEFRQTWKLFSSHMFI | 3.35 |
| DHSGFISLDEFRQTWKLFSSHMTI | 2.83 |
| DHSGFISLDEFRQTWKLFSSHMLI | 2.3 |
| DHSGFISLDEFRQTWKLFSSHMMI | 2.57 |
| DHSGFISLDEFRQTWKLFSSHMVI | 3.85 |
| DHSGFISLDEFRQTWKLFSSHMWI | 2.08 |

| Variant | protein stability index |
| --- | --- |
| DHSGFISLDEFRQTWKLFSSHMNR | 1.63 |
| DHSGFISLDEFRQTWKLFSSHMNG | 1.98 |
| DHSGFISLDEFRQTWKLFSSHMNC | 1.55 |
| DHSGFISLDEFRQTWKLFSSHMNN | 1.8 |
| DHSGFISLDEFRQTWKLFSSHMNE | 1.99 |
| DHSGFISLDEFRQTWKLFSSHMND | 1.96 |
| DHSGFISLDEFRQTWKLFSSHMNH | 1.7 |
| DHSGFISLDEFRQTWKLFSSHMNA | 1.96 |
| DHSGFISLDEFRQTWKLASSHMNI | 1.96 |
| DHSGFISLDEFRQTWKLKSSHMNI | 2.21 |
| DHSGFISLDEFRQTWKLPSSHMNI | 1.96 |
| DHSGFISLDEFRQTWKLSSSHMNI | 2.14 |
| DHSGFISLDEFRQTWKLESSHMNI | 1.88 |
| DHSGFISLDEFRQTWKLRSSHMNI | 1.8 |
| DHSGFISLDEFRQSWKLFSSHMNI | 2.14 |
| DHSGFISLDEFRQRWKLFSSHMNI | 2.38 |
| DHSGFISLDEFRQFWKLFSSHMNI | 1.83 |
| DHSGFISLDEFRQYWKLFSSHMNI | 1.49 |
| DHSGFISLDEFRQAWKLFSSHMNI | 2 |
| DHSGFISLDEFRQVWKLFSSHMNI | 1.93 |
| DHSGFISLVEFRQTWKLFSSHMNI | 2.94 |
| DHSGFISLEEFRQTWKLFSSHMNI | 2.29 |
| DHSGFISLAEFRQTWKLFSSHMNI | 3.05 |
| DHSGFISLQEFRQTWKLFSSHMNI | 2.2 |

| Variant | protein stability index |
| --- | --- |
| DHSGFISLMEFRQTWKLFSSHMNI | 2.67 |
| DHSGFISLWEFRQTWKLFSSHMNI | 2.75 |
| DHSGFISLLEFRQTWKLFSSHMNI | 3.39 |
| DHSGFISLYEFRQTWKLFSSHMNI | 1.51 |
| DGSGFISLDEFRQTWKLFSSHMNI | 1.43 |
| DCSGFISLDEFRQTWKLFSSHMNI | 1.75 |
| DESGFISLDEFRQTWKLFSSHMNI | 1.44 |
| DWSGFISLDEFRQTWKLFSSHMNI | 1.82 |
| DMSGFISLDEFRQTWKLFSSHMNI | 3.51 |
| DSSGFISLDEFRQTWKLFSSHMNI | 1.92 |
| DQSGFISLDEFRQTWKLFSSHMNI | 1.75 |
| DLSGFISLDEFRQTWKLFSSHMNI | 1.25 |
| DHSGFIALDEFRQTWKLFSSHMNI | 2.06 |
| DHSGFIPLDEFRQTWKLFSSHMNI | 1.44 |
| DHSGFIQLDEFRQTWKLFSSHMNI | 1.79 |
| DHSGFIKLDEFRQTWKLFSSHMNI | 1.69 |
| DHSGFITLDEFRQTWKLFSSHMNI | 2.04 |
| DHSGFIWLDEFRQTWKLFSSHMNI | 2.08 |
| DHSGFISLDCFRQTWKLFSSHMNI | 1.95 |
| DHSGFISLDPFRQTWKLFSSHMNI | 2.26 |
| DHSGFISLDSFRQTWKLFSSHMNI | 1.35 |
| DHSGFISLDWFRQTWKLFSSHMNI | 1.87 |
| DHSGFISLDNFRQTWKLFSSHMNI | 2.85 |
| DHSGFISLDYFRQTWKLFSSHMNI | 1.82 |

| Variant | protein stability index |
| --- | --- |
| DHSGFISLDFFRQTWKLFSSHMNI | 1.72 |
| DHSGFISLDEFRRTWKLFSSHMNI | 2.03 |
| DHSGFISLDEFRKTWKLFSSHMNI | 1.68 |
| DHSGFISLDEFRDTWKLFSSHMNI | 1.61 |
| DHSGFISLDEFRSTWKLFSSHMNI | 2.13 |
| DHSGFISLDEFRETWKLFSSHMNI | 2.36 |
| DHSGFISLDEFRTTWKLFSSHMNI | 3.18 |
| DHSGFISLDEFRYTWKLFSSHMNI | 1.45 |
| DHSGFISLDEFRWTWKLFSSHMNI | 2.52 |
| DHSGFISLDEFRGTWKLFSSHMNI | 1.96 |
| DHSGFISLDEFRATWKLFSSHMNI | 1.73 |
| DHSGRISLDEFRQTWKLFSSHMNI | 1.28 |
| DHSGCISLDEFRQTWKLFSSHMNI | 1.66 |
| DHSGQISLDEFRQTWKLFSSHMNI | 1.73 |
| DHSGIISLDEFRQTWKLFSSHMNI | 1.86 |
| DHSGNISLDEFRQTWKLFSSHMNI | 2.13 |
| DHSGEISLDEFRQTWKLFSSHMNI | 1.65 |
| DHSGTISLDEFRQTWKLFSSHMNI | 1.54 |
| DHSGYISLDEFRQTWKLFSSHMNI | 2.35 |
| DHSGSISLDEFRQTWKLFSSHMNI | 1.85 |
